In the supplement of paper PMC7125110:
± gives the standard error. This sample holds only a part of the variants without activity.

B1: glmS ribozyme (parent)
chain: AUAAAAGCGCCAGAACUACAGAAAUGUAGUUGACGAGGAGGAGGUUUAUCGAAUUUUCGGCGGAUGCCUCCAAA

Legend:
Settings in all cases: with glucosamine-6-phosphate
glucosamine-6-phosphate [1] = variants of: B1; assay: self-cleavage kobs at 40 uM GlcN6P; higher = faster cleavage; RNA array
How it was run: (§1)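 A hybridised Cy3 probe tracked barcoded ribozyme variants, transcribed in situ by E. coli RNA polymerase on sequenced MiSeq chips, at 37 °C. The variants received 40 μM to 10 mM glucosamine-6-phosphate in HEPES/KCl/Mg(OAc)2 buffer. kobs came from decay fits and kcat and KM from weighted Michaelis–Menten fits.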

glucosamine-6-phosphate [2] = variants of: B1; assay: self-cleavage kobs at 640 uM GlcN6P; higher = faster cleavage; RNA array
How it was run: as §1

glucosamine-6-phosphate [3] = variants of: B1; assay: self-cleavage kobs at 2500 uM GlcN6P; higher = faster cleavage; RNA array
How it was run: as §1

glucosamine-6-phosphate [4] = variants of: B1; assay: self-cleavage kobs at 160 uM GlcN6P; higher = faster cleavage; RNA array
How it was run: as §1

glucosamine-6-phosphate [5] = variants of: B1; assay: self-cleavage kobs at 10000 uM GlcN6P; higher = faster cleavage; RNA array
How it was run: as §1

Variant | self-cleavage kobs at 40 uM GlcN6P (glucosamine-6-phosphate [1]) | self-cleavage kobs at 640 uM GlcN6P (glucosamine-6-phosphate [2]) | self-cleavage kobs at 2500 uM GlcN6P (glucosamine-6-phosphate [3]) | self-cleavage kobs at 160 uM GlcN6P (glucosamine-6-phosphate [4]) | self-cleavage kobs at 10000 uM GlcN6P (glucosamine-6-phosphate [5])
C34G A48G C68G | 8.52e-05 ± 3.4e-05 s⁻¹ |  |  |  | 
G35A C50A G51A | < 1e-05 s⁻¹ | < 1e-05 s⁻¹ | < 1e-05 s⁻¹ |  | 
C34U G35U | < 1e-05 s⁻¹ | < 1e-05 s⁻¹ | < 1e-05 s⁻¹ | < 1e-05 s⁻¹ | < 1e-05 s⁻¹
A36U A48U | < 1e-05 s⁻¹ |  | < 1e-05 s⁻¹ | < 1e-05 s⁻¹ | < 1e-05 s⁻¹
A33U A64C | < 1e-05 s⁻¹ | < 1e-05 s⁻¹ |  | < 1e-05 s⁻¹ | < 1e-05 s⁻¹
C34A G40C U46C | < 1e-05 s⁻¹ |  |  |  | 
A36G U49G | < 1e-05 s⁻¹ | < 1e-05 s⁻¹ |  |  | 
G35A G51A | < 1e-05 s⁻¹ |  |  |  | < 1e-05 s⁻¹
C34G C50G G59A C67G | 3.78e-05 ± 1.8e-05 s⁻¹ |  | 0.000115 ± 2.3e-05 s⁻¹ | 0.000158 ± 3.7e-05 s⁻¹ | 
C34U G40U C50U | < 1e-05 s⁻¹ | < 1e-05 s⁻¹ |  |  | < 1e-05 s⁻¹
A36C G41U G44C U55G U56C C61G | < 1e-05 s⁻¹ |  |  |  | 
C34G G41C G66U | < 1e-05 s⁻¹ |  |  |  | < 1e-05 s⁻¹
C34A G51A | < 1e-05 s⁻¹ |  | < 1e-05 s⁻¹ | < 1e-05 s⁻¹ | 
G35A U45C C71U | < 1e-05 s⁻¹ |  | < 1e-05 s⁻¹ |  | < 1e-05 s⁻¹
C34U G40U C67G | < 1e-05 s⁻¹ |  | < 1e-05 s⁻¹ |  | < 1e-05 s⁻¹
C34A U56C | < 1e-05 s⁻¹ | < 1e-05 s⁻¹ | < 1e-05 s⁻¹ |  | < 1e-05 s⁻¹
C34U G51U U54C U57G | < 1e-05 s⁻¹ |  | < 1e-05 s⁻¹ |  | 
G35A U45C | < 1e-05 s⁻¹ | < 1e-05 s⁻¹ | < 1e-05 s⁻¹ |  | < 1e-05 s⁻¹
C34A U47G U54G G59U C68G | 0.000664 ± 0.0002 s⁻¹ |  |  |  | 0.000474 ± 0.00012 s⁻¹
G35C G40U A64U | < 1e-05 s⁻¹ |  | < 1e-05 s⁻¹ | < 1e-05 s⁻¹ | 
G37A G51A U55G | < 1e-05 s⁻¹ |  |  |  | < 1e-05 s⁻¹
A36G A42U | < 1e-05 s⁻¹ | < 1e-05 s⁻¹ |  | < 1e-05 s⁻¹ | < 1e-05 s⁻¹
A33U G37C U45C A64C | < 1e-05 s⁻¹ |  |  |  | < 1e-05 s⁻¹
C34A G38A | < 1e-05 s⁻¹ |  | < 1e-05 s⁻¹ | < 1e-05 s⁻¹ | < 1e-05 s⁻¹
